Experimental data reported in patent US11066655B2, “RNA polymerase, methods of purification and methods of use” (President and Fellows of Harvard College, priority 2013, dated 2021).

Legend:
[1] = Solubility / precipitation of the purified enzyme; type: physicochemical; conditions: transcription reaction
Method: His-tagged Syn5 RNAP was expressed from a pET24 vector harboring His-tagged Syn5 RNAP gene between the NdeI and NotI sites (Zhu et al. (2013)) and purified by Ni-NTA agarose and gel filtration chromatography. 2 M NaCl was present during the purification procedure and was removed by dialysis as the protein was finally concentrated. E. coli BL21(DE3) cells over-producing the protein were cultured in 2 L LB medium containing 50 µg/ml kanamycin at 37° C. until they reached an OD600 of approximately 1.2. The gene for Syn5 RNAP was induced by the addition of 0.5 mM IPTG at 16° C. and incubation continued for 3 hr. Cells were harvested, resuspended in 50 mM sodium phosphate, pH 8.0, 100 mM NaCl, and lysed by three cycles of freeze-thaw in the presence of 0.5 mg/ml lysozyme. 2 M NaCl was then added to the lysed cells and the cleared lysate was collected by centrifugation. 2 ml Ni-NTA agarose was added to the clear lysate and mixed at 4° C. overnight. The resin was then washed with 30 ml of wash buffer (50 mM sodium phosphate, pH 8.0, 2 M NaCl, and 20 mM imidazole). […] Fractions were analyzed on SDS-PAGE gels and those with Syn5 RNAP over 80% were collected and concentrated with Amicon Ultra-15 Centrifugal Filter Units (Millipore) to 1 ml. […] Fractions were analyzed on SDS-PAGE gels and those with homogenous Syn5 RNAP were pooled. […]

[2] = system: dsDNA template (1, 2 or 3); experiment: Incorporation of 2′-F-dNTP into RNA by wild-type Syn5 RNA polymerase (Mg buffer); type: biochemical
From the text: FIG. 24 depicts gels showing incorporation of 2′-F-dNTP into RNA using WT Syn5 RNA polymerase.
According to certain aspects of the invention, wild-type Syn5 RNA polymerase was used in methods described herein for high yield 2′-F RNA synthesis, with DNA templates that allow incorporation of fewer than three 2′-F-dNTP into the first 12 nt of a full-length transcript and in a non-consecutive manner. Transcription initiation (synthesis of 2-12 nt RNA) can be the most unstable stage for an RNA polymerase. Once transcripts are extended over 12 nt, transcription elongation is robust and stable. To determine whether the incorporation of 2′-F-dNTP during the transcription initiation stage is a rate-limiting step of Syn5 RNA polymerase, Syn5 RNA polymerase transcription in the presence of 2′-F-dNTPs on DNA templates that allow various amounts of 2′-F-dNTP incorporation into the first 12 nt of the RNA products was compared. The following conditions were used.
The reaction components were incubated at 37° C. for 4 hrs. Then 0.4 µl of the reaction mixture were loaded onto 10% TBE gel and stained with ethidium bromide. […] See FIG. 1. lane 1 vs 2; 8 vs 7; 15 vs 14. […] Template 1 has also 3Gs but two of them are consecutive. […] See FIG. 1. lane 10 vs 7; lane 17 vs 14). […] Although there are only 2 Cs in the 1-12 nt region of template 1, two consecutive incorporations during the initiation stage prevented the efficient synthesis of RNA products containing 2′-F-dCMP. With template 3 starting with C, 2′-F-dCTP was still efficiently incorporated.

[3] = system: plasmid pET24-S5 RNAP; experiment: Incorporation of AMP by RNA polymerases from the improved purification; type: biochemical
Method: FIGS. 8A-8B depict RNA polymerases described further herein. A) SDS-PAGE gel of Syn5 RNA polymerase purified as previously reported (S50, 18), newly purified Syn5 RNA polymerase using Ni-NTA chromatography in the presence of 2 M NaCl (S5N1), newly purified Syn5 RNA polymerase purified using Ni-NTA and gel filtration chromatography in the presence of 2 M NaCl (S5N2), and T7 RNA polymerase. B) Incorporation of AMP at RT by 50 nM RNA polymerases shown in A). A plasmid with both a Syn5 and T7 promoter was used as template for transcription.
Reactions for FIG. 8B contained 40 mM Tris-HCl pH 8.0, 2 mM spermidine, 10 mM DTT, 200 µM[…] GTP, C[…]P, UTP and ^3H-ATP (20 cpm/pmole), 1.5 U/µl RNaseOUT™, 50 nM Syn5 or T7 RNAP and 4 nM plasmid pET24-S5 RNAP. Reaction mixtures were incubated at room temperature (RT, ˜24° C.). After various times the reactions were stopped by the addition of 20 mM EDTA. 4 µl of the mixtures were then loaded onto Whatman DE81 filter paper disks and the disks were washed to remove the unincorporated ^3H-ATP. The amount of insoluble ^3H-AMP, corresponding to nucleotides incorporated into newly synthesized RNA, was measured using a scintillation counter. The data were analyzed using Prism software.

B1: Syn5 RNAP: single subunit DNA-dependent RNA polymerase from marine cyanophage Syn5, amino acid sequence SEQ ID NO:23 (protein)
chain: MSFDLIARQLQRETEAAELARKRLQDARREANERSYASSNIESRKAIATFLDPIAQRIGERLFTLRRGTGAVDAAEVYKHLKNADHHHLALITMKTALDVLGKDPEPQIQQLTTAIGRNIQLELRLTYYAEENPELYKQASRFFHAGTGTRQKATVIKLKFNREGIEWDQWSRVTCHKVGQWLMLAMADVTGWIERATDRTSGGRKTKTRICYSREFLQHRDTILAAAEQLAFCQWPMLCPPIEWSNDHNGGYLSEQIRRVNPLIRKTGPLGTRKQGDIPLAMLNNLQGQAYKVNPEVLDIANHCYESNVTVGKFIRHAPLPVPPSPGEDCTEDQLTAYKRARREAEDFNAQISQKNWRTTEVMYVARKYADEASFWMPASFDYRGRVYFLNTALNPQGTDFDKALLYFAEEGPVNEWWLSFHVATTYGLDKETMVNRVQWARDNHELIDRIASDPVRHTEWHDADEPWCFLAACLEYKACVIDGTKQTSGLPIGIDATCSGLQHLAAMTRCGRTAALVNVTPTDKPADAYKTVAQASLKHLPKEQHEWITRKVTKRPVMCTPYGVTMSSARGYIRDQLVKDGHKEDLRSPGVLNGIVKAIFNEAIPEVIPGPVQVMAWLKRSAGQIIDRGDSTITWTTPSGFEVVQDLKKSKTYEVKTRIMGGARIKLQVGDGFTDEPDRDHHKSALAPNVVHSNDASLLHLTFAFWDKPFTVIHDCVLGRSCDMDQMGSDIRLHFAEMYKADVMQDWADQVGVELPVDLIKNTLDIDSVNQSLYFFS
modifications: Amino acid sequence of a cyanophage Syn5 RNAP
- final concentration in the reaction resulting in severe protein precipitation [1]: over 5 µM
- full-length products containing 2′-F-dUMP ([2]; template 1 and 3): low yield
- incorporation of 2′-F-dUTP ([2]; template 2): efficient incorporation
- incorporation of 2′-F-dCTP ([2]; template 2 and 3): incorporated very well
- full-length transcript with ATP replaced by 2′-F-dATP ([2]; templates 1, 2, 3): none of them produces full-length transcript
- discrimination against 2′-F-dCTP ([2]; transcription elongation): no intrinsic discrimination against 2′-F-dCTP
- activity of enzyme purified by Ni-NTA and gel filtration ([3]; 50 nM RNAP, RT): close to that of T7 RNAP
- increase of specific activity by improved purification (2 M NaCl) ([3]; versus previous three-step purification): 2 fold
